Molecular target: purified poly(ADP-ribose) polymerase (PARP)

B1: purified recombinant human ICE (protein)
chain 1: NPAMPTSSGSEGNVKLCSLEEAQRIWKQKSAEIYPIMDKSSRTRLALIICNEEFDSIPRRTGAEVDITGMTMLLQNLGYSVDVKKNLTASDMTTELEAFAHRPEHKTSDSTFLVFMSHGIREGICGKKHSEQVPDILQLNAIFNMLNTKNCPSLKDKPKVIIIQACRGDSPGVVWFKD
chain 2: AIKKAHIEKDFIAFCSSTPDNVSWRHPTMGSVFIGRLIEHMQEYACSCDVEEIFRKVRFSFEQPDGRAQMPTTERVTLTRCFYLFPGH
proteolytic cleavage of purified PARP, anti-PARP immunoblot: Purified ICE did not cleave PARP
